In publication PMC8294578:

B1: BaSO4-adsorbing protein 1 (BSAP1) from Ornithodoros savignyi (natural protein)
chain: MDSEFPCPRKQQPAGNSECSYYCEMNGQWKLGKFQNGARCDYNAVKDGVCNEGLCYASGDSASNTQNQGGSRRQENEDQGDDEWDRK

Experiments:
[1] = target: mannan binding lectin-associated serine proteases (MASPs) (human (endogenous in human serum))
[2] = target: factor V (FV) (human (endogenous in human plasma))
[3] = target: mannan-binding lectin (MBL) (human (endogenous in human serum)) (UniProt P11226)
[4] = target: mannan-binding lectin (MBL) (human (endogenous in human serum)) (UniProt P11226); remark: listed apart in the source

Chain of UniProt P11226 (P11226 21-248): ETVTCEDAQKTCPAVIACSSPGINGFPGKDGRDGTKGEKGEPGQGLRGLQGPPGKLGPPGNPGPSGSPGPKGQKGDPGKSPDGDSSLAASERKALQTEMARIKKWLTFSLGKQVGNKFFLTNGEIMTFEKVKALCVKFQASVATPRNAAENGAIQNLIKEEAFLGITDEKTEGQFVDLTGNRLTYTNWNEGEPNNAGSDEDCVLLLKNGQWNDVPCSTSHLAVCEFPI

Row | Molecule | EC50 of inhibition of lectin pathway activation in human serum (mannan-coated wells, ELISA, C4b deposition) [1] | decrease of prothrombinase activity in the FV(a) inhibition assay (1/1000 diluted human plasma, 20 pM FXa, 100 nM peptide) [2] | EC50 of inhibition of MBL deposition on mannan-coated wells from human serum (ELISA, anti-MBL antibody) [3] | EC50 of inhibition of lectin pathway activation in human serum (mannan-coated wells, ELISA, C4b deposition) [4]
1 | D70-L104 Salp14 (from UniProt Q95WY7 91-125) (peptide) | 17 µM | 40 % decrease |  | 
2 | tick salivary lectin pathway inhibitor (TSLPI) from Ixodes scapularis (natural protein) |  |  | 90 µM | 25 µM
3 | B1 |  |  | 26 µM | 8 µM
